In patent publication US20200270588A1, “GLUCOSYL TRANSFERASE POLYPEPTIDES AND METHODS OF USE” (Syngenta Participations AG, priority 2017, published 2020):

Experiments:
[1] = UDP luminescence plate assay of E. coli extracts, mutants of SEQ ID No: 1, 2 mM metribuzin; assay type: biochemical, Zea mays; conditions: for RATIO of the metribuzin signal to the DMSO signal: 2 mM metribuzin vs DMSO control, same mutant; for SIGNAL: metribuzin signal of mutant divided by the signal of w/t bx9 / luminescence signal observed with 2 mM metribuzin: 2 mM metribuzin; for SIGNAL: metribuzin signal of mutant divided by the signal of w/t bx9: relative to bx9 w/t; for luminescence signal in the DMSO control: mutants of SEQ ID No: 1, DMSO in place of metribuzin (background UDP-glucose hydrolysis); for luminescence signal observed with 2 mM metribuzin: mutants of SEQ ID No: 1 in E. coli extracts, UDP luminescence
Procedure, shortened: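 Extracts of E. coli BL21 DE3 expressing C-terminally His-tagged SEQ ID NO:1 variants incubated with 2 mM metribuzin; UDP formed read by UDP-Glo luminescence against a UDP standard curve, with optional 95 C stop. Mutants ranked by metribuzin/DMSO signal ratio and signal increase over wild-type bx9.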

[2] = UDP luminescence plate assay of E. coli extracts, saturation mutants of SEQ ID NO: 1, herbicide V; assay type: biochemical, Zea mays; conditions: improvement factor relative to w/t bx9 = 1.0, rounded to nearest 0.5; extract activity basis; compound V

Molecule | RATIO of the metribuzin signal to the DMSO signal [1] | SIGNAL: metribuzin signal of mutant divided by the signal of w/t bx9 [1] | luminescence signal in the DMSO control [1] | luminescence signal observed with 2 mM metribuzin [1] | Preferred amino acid substitutions and (IF) based on RLU/min/ul [2] | Most Preferred amino acid substitutions and (IF) based on RLU/min/ul [2]
L143M: bx9 SEQ ID NO:1 mutant (protein, Zea mays) MASSRTGAGAGGRVVVFPFPFQGHFNPVMRLARALHARGLAITVFHSGALDPADYPADYRFVPVTVEADPKLLASEDIAAIVTTLNASCDAPFRARLSALLAAEGRDSVRCVFTDVSWNAVLTASSDLGVPALGMMTASAASMRDYMAYRTLIDKGYLPVKEERKEDPVPELPPYLVKDLLRVDTSDLEEFAELLARTVTAARRASGLIFNTFPLIETDTLAEIHKALSVPVFAVAPLNKLVPTATASLHGVVQADRGCLQWLDTQQPGSVLYVSFGSMAAMDPHEFVELAWGLADSKRPFVWVVRPNLIRGFESGALPDGVEDEVRGRGIVVAWAPQEEVLAHPAVGGFLTHNGWNSTVEAISEGVPMVCCPRHGDQFGNMRYVCDVWKVGTELVGEQLERGQVKAAIDRLFGTKEGEEIKERMKEFKIAAAKGIGIGVDVDETASPRTDLTDLVDLIKSF | 1.04 | 1.02 | 2.74E+05 | 2.86E+05 | M,Y(1.0) | 
A202T: bx9 SEQ ID NO:1 mutant (protein, Zea mays) MASSRTGAGAGGRVVVFPFPFQGHFNPVMRLARALHARGLAITVFHSGALDPADYPADYRFVPVTVEADPKLLASEDIAAIVTTLNASCDAPFRARLSALLAAEGRDSVRCVFTDVSWNAVLTASSDLGVPALGMMTASAASLRDYMAYRTLIDKGYLPVKEERKEDPVPELPPYLVKDLLRVDTSDLEEFAELLARTVTATRRASGLIFNTFPLIETDTLAEIHKALSVPVFAVAPLNKLVPTATASLHGVVQADRGCLQWLDTQQPGSVLYVSFGSMAAMDPHEFVELAWGLADSKRPFVWVVRPNLIRGFESGALPDGVEDEVRGRGIVVAWAPQEEVLAHPAVGGFLTHNGWNSTVEAISEGVPMVCCPRHGDQFGNMRYVCDVWKVGTELVGEQLERGQVKAAIDRLFGTKEGEEIKERMKEFKIAAAKGIGIGVDVDETASPRTDLTDLVDLIKSF |  | 0.93 | 2.52E+05 | 2.61E+05 | T,I,V,L,F(1.5) | 
T220H: bx9 SEQ ID NO:1 mutant (protein, Zea mays) MASSRTGAGAGGRVVVFPFPFQGHFNPVMRLARALHARGLAITVFHSGALDPADYPADYRFVPVTVEADPKLLASEDIAAIVTTLNASCDAPFRARLSALLAAEGRDSVRCVFTDVSWNAVLTASSDLGVPALGMMTASAASLRDYMAYRTLIDKGYLPVKEERKEDPVPELPPYLVKDLLRVDTSDLEEFAELLARTVTAARRASGLIFNTFPLIETDHLAEIHKALSVPVFAVAPLNKLVPTATASLHGVVQADRGCLQWLDTQQPGSVLYVSFGSMAAMDPHEFVELAWGLADSKRPFVWVVRPNLIRGFESGALPDGVEDEVRGRGIVVAWAPQEEVLAHPAVGGFLTHNGWNSTVEAISEGVPMVCCPRHGDQFGNMRYVCDVWKVGTELVGEQLERGQVKAAIDRLFGTKEGEEIKERMKEFKIAAAKGIGIGVDVDETASPRTDLTDLVDLIKSF |  | 1.82 | 5.47E+05 | 5.08E+05 |  | H,P(4.0)
T220F: bx9 SEQ ID NO:1 mutant (protein, Zea mays) MASSRTGAGAGGRVVVFPFPFQGHFNPVMRLARALHARGLAITVFHSGALDPADYPADYRFVPVTVEADPKLLASEDIAAIVTTLNASCDAPFRARLSALLAAEGRDSVRCVFTDVSWNAVLTASSDLGVPALGMMTASAASLRDYMAYRTLIDKGYLPVKEERKEDPVPELPPYLVKDLLRVDTSDLEEFAELLARTVTAARRASGLIFNTFPLIETDFLAEIHKALSVPVFAVAPLNKLVPTATASLHGVVQADRGCLQWLDTQQPGSVLYVSFGSMAAMDPHEFVELAWGLADSKRPFVWVVRPNLIRGFESGALPDGVEDEVRGRGIVVAWAPQEEVLAHPAVGGFLTHNGWNSTVEAISEGVPMVCCPRHGDQFGNMRYVCDVWKVGTELVGEQLERGQVKAAIDRLFGTKEGEEIKERMKEFKIAAAKGIGIGVDVDETASPRTDLTDLVDLIKSF |  | 2.22 | 7.87E+05 | 6.21E+05 |  | 3.5
V199M: bx9 SEQ ID NO:1 mutant (protein, Zea mays) MASSRTGAGAGGRVVVFPFPFQGHFNPVMRLARALHARGLAITVFHSGALDPADYPADYRFVPVTVEADPKLLASEDIAAIVTTLNASCDAPFRARLSALLAAEGRDSVRCVFTDVSWNAVLTASSDLGVPALGMMTASAASLRDYMAYRTLIDKGYLPVKEERKEDPVPELPPYLVKDLLRVDTSDLEEFAELLARTMTAARRASGLIFNTFPLIETDTLAEIHKALSVPVFAVAPLNKLVPTATASLHGVVQADRGCLQWLDTQQPGSVLYVSFGSMAAMDPHEFVELAWGLADSKRPFVWVVRPNLIRGFESGALPDGVEDEVRGRGIVVAWAPQEEVLAHPAVGGFLTHNGWNSTVEAISEGVPMVCCPRHGDQFGNMRYVCDVWKVGTELVGEQLERGQVKAAIDRLFGTKEGEEIKERMKEFKIAAAKGIGIGVDVDETASPRTDLTDLVDLIKSF | 1.02 | 0.92 | 2.53E+05 | 2.58E+05 | M,N(1.0) | 
A202S: bx9 SEQ ID NO:1 mutant (protein, Zea mays) MASSRTGAGAGGRVVVFPFPFQGHFNPVMRLARALHARGLAITVFHSGALDPADYPADYRFVPVTVEADPKLLASEDIAAIVTTLNASCDAPFRARLSALLAAEGRDSVRCVFTDVSWNAVLTASSDLGVPALGMMTASAASLRDYMAYRTLIDKGYLPVKEERKEDPVPELPPYLVKDLLRVDTSDLEEFAELLARTVTASRRASGLIFNTFPLIETDTLAEIHKALSVPVFAVAPLNKLVPTATASLHGVVQADRGCLQWLDTQQPGSVLYVSFGSMAAMDPHEFVELAWGLADSKRPFVWVVRPNLIRGFESGALPDGVEDEVRGRGIVVAWAPQEEVLAHPAVGGFLTHNGWNSTVEAISEGVPMVCCPRHGDQFGNMRYVCDVWKVGTELVGEQLERGQVKAAIDRLFGTKEGEEIKERMKEFKIAAAKGIGIGVDVDETASPRTDLTDLVDLIKSF | 0.94 | 0.91 | 2.70E+05 | 2.53E+05 | S,I,C,M(1.0) | 
T220W: bx9 SEQ ID NO:1 mutant (protein, Zea mays) MASSRTGAGAGGRVVVFPFPFQGHFNPVMRLARALHARGLAITVFHSGALDPADYPADYRFVPVTVEADPKLLASEDIAAIVTTLNASCDAPFRARLSALLAAEGRDSVRCVFTDVSWNAVLTASSDLGVPALGMMTASAASLRDYMAYRTLIDKGYLPVKEERKEDPVPELPPYLVKDLLRVDTSDLEEFAELLARTVTAARRASGLIFNTFPLIETDWLAEIHKALSVPVFAVAPLNKLVPTATASLHGVVQADRGCLQWLDTQQPGSVLYVSFGSMAAMDPHEFVELAWGLADSKRPFVWVVRPNLIRGFESGALPDGVEDEVRGRGIVVAWAPQEEVLAHPAVGGFLTHNGWNSTVEAISEGVPMVCCPRHGDQFGNMRYVCDVWKVGTELVGEQLERGQVKAAIDRLFGTKEGEEIKERMKEFKIAAAKGIGIGVDVDETASPRTDLTDLVDLIKSF |  | 1.59 | 4.99E+05 | 4.44E+05 |  | 3.5
L143Y: bx9 SEQ ID NO:1 mutant (protein, Zea mays) MASSRTGAGAGGRVVVFPFPFQGHFNPVMRLARALHARGLAITVFHSGALDPADYPADYRFVPVTVEADPKLLASEDIAAIVTTLNASCDAPFRARLSALLAAEGRDSVRCVFTDVSWNAVLTASSDLGVPALGMMTASAASYRDYMAYRTLIDKGYLPVKEERKEDPVPELPPYLVKDLLRVDTSDLEEFAELLARTVTAARRASGLIFNTFPLIETDTLAEIHKALSVPVFAVAPLNKLVPTATASLHGVVQADRGCLQWLDTQQPGSVLYVSFGSMAAMDPHEFVELAWGLADSKRPFVWVVRPNLIRGFESGALPDGVEDEVRGRGIVVAWAPQEEVLAHPAVGGFLTHNGWNSTVEAISEGVPMVCCPRHGDQFGNMRYVCDVWKVGTELVGEQLERGQVKAAIDRLFGTKEGEEIKERMKEFKIAAAKGIGIGVDVDETASPRTDLTDLVDLIKSF |  | 1.06 | 2.77E+05 | 2.98E+05 | M,Y(1.0) | 
T220P: bx9 SEQ ID NO:1 mutant (protein, Zea mays) MASSRTGAGAGGRVVVFPFPFQGHFNPVMRLARALHARGLAITVFHSGALDPADYPADYRFVPVTVEADPKLLASEDIAAIVTTLNASCDAPFRARLSALLAAEGRDSVRCVFTDVSWNAVLTASSDLGVPALGMMTASAASLRDYMAYRTLIDKGYLPVKEERKEDPVPELPPYLVKDLLRVDTSDLEEFAELLARTVTAARRASGLIFNTFPLIETDPLAEIHKALSVPVFAVAPLNKLVPTATASLHGVVQADRGCLQWLDTQQPGSVLYVSFGSMAAMDPHEFVELAWGLADSKRPFVWVVRPNLIRGFESGALPDGVEDEVRGRGIVVAWAPQEEVLAHPAVGGFLTHNGWNSTVEAISEGVPMVCCPRHGDQFGNMRYVCDVWKVGTELVGEQLERGQVKAAIDRLFGTKEGEEIKERMKEFKIAAAKGIGIGVDVDETASPRTDLTDLVDLIKSF |  | 1.57 | 5.28E+05 | 4.40E+05 |  | H,P(4.0)
